“And” between values parts separate entries of the source, which are not always exact repeats. Identical values can stand only once.

For assay [1], the target named is T1, human ROR1 on live cells (human, UniProt Q01973 30-937).
T1 construct: ROR1-transfected MEC cells (~56,000 copies/cell) or JeKo-1 cells (~13,000 copies/cell); the cell line is named under assay; also called ROR1-transfected MEC cells; JeKo-1 cells
The assay can be described thus: flow cytometry on live JeKo-1 cells, scFv detected with anti-HA-PE; x axis is Log [relative scFv expression], no concentration unit. A general note: In flow cytometry, cells or beads pass a laser one at a time.

The target of assay [2] is T2, recombinant human ROR1 extracellular domain (human, UniProt Q01973 30-406).
T2 construct: biotinylated for the filter lifts; also called huROR1-ECD; human ROR1-ECD
The assay can be described thus: ELISA: huROR1-ECD coated on the plate, periplasmic scFv in serial dilution, anti-HA-HRP detection; x axis is Log [relative expression], no concentration unit. How it is done:
scFv constructs were expressed and isolated from the periplasmic space using the same protocol that was used for Fabs (Example 2). In order to quantitate the relative levels of scFv expression of the three variants, a 96-well Costar-3366 plate was coated with 50 μl/well of 2 μg/mL anti-FLAG-unlabeled (Rockland, cat. #600-401-383) in PBS overnight at 4° C. The plate was washed three times with PBS containing 0.05% Tween 20 (PBS-T) and blocked with 100 μL of 5% M-P. The plate was washed once, then 50 μl/well of sample dilutions was added. Sample dilutions were performed with 5% M-P. The plates were incubated 1 h at 25° C., washed three times with PBS-T, and incubated with 50 μl/well of anti-HA HRP conjugate (Roche, cat. #12013819001), diluted 1,000-fold in 5% M-P for 1 h at 25° C. The plate was washed three times with PBS-T, and developed with 50 μl/well 1-Step Ultra TMB-ELISA (Thermo Scientific, Prod. #34028, Lot #SF2405221). The reaction was terminated by the addition of 2 N H2504 and the A450 was determined using a Spectramax plate reader.
Next, the binding of the isolated scFv variants to huROR1-ECD was assessed by ELISA as described in Example 2. A 96-well Costar-3366 plate was coated with 50 μl/well of 1 μg/mL human ROR-1 (AcroBiosystems, cat. #R01H522Y) in PBS overnight at 4° C. The plate was washed three times with PBS-T and blocked with 100 μL of 5% M-P. The plate was washed once, then 50 μl/well of 2-fold serial dilutions of sample was added. Sample dilutions were performed with 5% M-P. The plates were incubated 1 h at 25° C., washed three times with PBS-T, and incubated with 50 μl/well of anti-HA HRP conjugate (Roche, cat. #12013819001), diluted 1,000-fold in 5% M-P for 1 h at 25° C. […] The reaction was terminated by the addition of 2 N H₂SO₄ and the A450 was determined using a Spectramax plate reader. In order to compare the relative binding strength of the scFv variants, the expression levels as determined using the scFv ELISA described above were normalized to the Ab1 parental construct. […]
Background: ELISA stands for enzyme-linked immunosorbent assay.

For assay [3], the target named is T2, recombinant human ROR1 extracellular …. Briefly: ELISA, soluble Fab on coated huROR1-ECD. How it is done:
(§1) The previously described filter lift assay provides a visual, qualitative assessment of antigen binding (Example 1). In order to assess the ROR1 binding activity of Ab1 Fab in a more quantitative fashion, an ELISA assay was developed. A 96-well Costar-3366 plate was coated with 50 μL/well of 1 μg/mL human ROR1-ECD (ACROBiosystems, cat. #RO1-H522y) in PBS overnight at 4° C. The plate was rinsed once with PBS-T and blocked with 100 μL/well of 5% M-P for 1 h at 25° C. Fab samples were serially diluted 3-fold using 5% M-P and 50 μL/well was incubated for 1 h at 25° C. The plate was washed three times with PBS-T and 50 μL/well anti-human kappa, and HRP conjugate (Southern Biotech, cat. #2060-05) diluted 10,000-fold in 5% M-P was added for 1 h at 25° C. In certain assays (extended wash format), the plate was placed in large volumes (up to 1 L) of PBS-T and incubated, with mixing, for 2-5 h prior to the addition of anti-human kappa, HRP conjugate. The plate was washed three times with PBS-T, and developed with 50 μL/well 1-Step Ultra TMB-ELISA (Thermo Scientific, cat. #34028). The reaction was terminated by the addition of 2 N H2504 and the A450 was determined using a Spectramax plate reader.

Assay [4] has the same target. The assay can be described thus: ELISA, soluble Fab on coated huROR1-ECD. The source holds these as a separate data set.
In assay [5] the target is T1, human ROR1 on live cells. The assay can be described thus: flow cytometry on live JeKo-1 cells, Fab detected with anti-HA-PE. How it is done: (§2) ROR1 binding was quantitated using flow cytometry and 2.5E5 ROR1-transfected MEC cells or JeKo-1 cells for each concentration of Fab variant. The cells were placed in 50 μL of PBS with 2% FBS. Next, the cells were diluted with an equal volume of 2× stock of the test Fab variant and the cells and antibody were co-incubated on ice for 20 min. The cells were then washed 3 times with 300 μL of FACS buffer and were resuspended in 100 μL of a 70-fold dilution of anti-HA.11-PE conjugate, clone 16B12 (BioLegend, cat. #901517) and incubated on ice with reduced light for 20 min. Subsequently, the cells were washed 3 times with 300 μL of FACS buffer and fixed with 2% paraformaldehyde for 10 min at 25° C. The cells then were washed 2 times with 300 μL of FACS buffer and analyzed on a Miltenyi MACSQuant Analyzer.

For assay [6], the target named is T2, recombinant human ROR1 extracellular …. Briefly: ELISA, soluble Fab on coated huROR1-ECD. This is another data set of the same source.
The target is the same in assay [7]. Briefly: ELISA, soluble Fab on coated huROR1-ECD; WT control beside variant G27N (…, SEQ ID NO: 15). Here is the method: as §1
For assay [8] the target is unchanged. The assay can be described thus: ELISA with prolonged wash, soluble Fab on coated huROR1-ECD. Here is the method:
as §1
(§3) Subsequently, the libraries were screened by capture lift to identify the strongest binding variants. The identity of the variants was determined by DNA sequencing and the relative affinities were characterized using an ELISA (described in Example 2) modified to enable further discrimination between the highest affinity variants. Specifically, following the initial incubation with soluble Fab, the plates were washed for a prolonged time (>1 h) in large volumes of PBS-T. The plates were then developed as described in Example 2.

Assay [9] has the same target. Briefly: ELISA with prolonged wash (>1 h in PBS-T): huROR1-ECD coated on the plate, soluble Fab titrated, anti-human kappa-HRP detection. Here is the method: as §1, with “The plate was washed three times with PBS-T, and developed with 50 μL/well 1-Step Ultra TMB-ELISA (Thermo Scientific, cat. #34028).” left out
Subsequently, the libraries were screened by capture lift to identify the strongest binding variants. The identity of the variants was determined by DNA sequencing and the relative affinities were characterized using an ELISA (described in Example 2) modified to enable further discrimination between the highest affinity variants. […]

Assay [10] has the same target. Briefly: ELISA with prolonged wash, soluble Fab on coated huROR1-ECD. Here is the method: as §1, §3
The source holds these as a separate data set.

For assay [11] the target is unchanged. The assay is described as above. Here is the method:
as §1, §3
The source holds these as a separate data set.

Assay [12] addresses T1, human ROR1 on live cells. Briefly: flow cytometry on live ROR1-transfected MEC cells, Fab detected with anti-HA-PE. Here is the method: as §2
Initially, three anti-ROR1 Fab variants, each differing from the parental antibody by a single amino acid, were characterized for binding to human ROR1 using live ROR1-transfected MEC cells. […] The binding profiles of the variants on live ROR1-transfected MEC cells were consistent with the binding profiles obtained using recombinant huROR1-ECD and an ELISA (see Example 3, FIG. 5).

T2 sequence (Q01973 30-406 limits assumed): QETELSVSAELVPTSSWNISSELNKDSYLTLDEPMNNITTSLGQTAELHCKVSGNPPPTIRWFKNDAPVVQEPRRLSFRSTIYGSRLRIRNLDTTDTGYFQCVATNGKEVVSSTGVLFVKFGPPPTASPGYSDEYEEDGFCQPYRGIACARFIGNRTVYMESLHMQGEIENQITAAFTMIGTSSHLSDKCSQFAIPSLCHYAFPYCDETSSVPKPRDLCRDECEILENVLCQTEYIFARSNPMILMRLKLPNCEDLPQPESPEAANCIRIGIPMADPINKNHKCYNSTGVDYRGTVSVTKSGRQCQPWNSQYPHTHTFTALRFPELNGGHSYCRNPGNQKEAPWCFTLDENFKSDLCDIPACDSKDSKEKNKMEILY
T1 sequence (Q01973 30-937 limits assumed): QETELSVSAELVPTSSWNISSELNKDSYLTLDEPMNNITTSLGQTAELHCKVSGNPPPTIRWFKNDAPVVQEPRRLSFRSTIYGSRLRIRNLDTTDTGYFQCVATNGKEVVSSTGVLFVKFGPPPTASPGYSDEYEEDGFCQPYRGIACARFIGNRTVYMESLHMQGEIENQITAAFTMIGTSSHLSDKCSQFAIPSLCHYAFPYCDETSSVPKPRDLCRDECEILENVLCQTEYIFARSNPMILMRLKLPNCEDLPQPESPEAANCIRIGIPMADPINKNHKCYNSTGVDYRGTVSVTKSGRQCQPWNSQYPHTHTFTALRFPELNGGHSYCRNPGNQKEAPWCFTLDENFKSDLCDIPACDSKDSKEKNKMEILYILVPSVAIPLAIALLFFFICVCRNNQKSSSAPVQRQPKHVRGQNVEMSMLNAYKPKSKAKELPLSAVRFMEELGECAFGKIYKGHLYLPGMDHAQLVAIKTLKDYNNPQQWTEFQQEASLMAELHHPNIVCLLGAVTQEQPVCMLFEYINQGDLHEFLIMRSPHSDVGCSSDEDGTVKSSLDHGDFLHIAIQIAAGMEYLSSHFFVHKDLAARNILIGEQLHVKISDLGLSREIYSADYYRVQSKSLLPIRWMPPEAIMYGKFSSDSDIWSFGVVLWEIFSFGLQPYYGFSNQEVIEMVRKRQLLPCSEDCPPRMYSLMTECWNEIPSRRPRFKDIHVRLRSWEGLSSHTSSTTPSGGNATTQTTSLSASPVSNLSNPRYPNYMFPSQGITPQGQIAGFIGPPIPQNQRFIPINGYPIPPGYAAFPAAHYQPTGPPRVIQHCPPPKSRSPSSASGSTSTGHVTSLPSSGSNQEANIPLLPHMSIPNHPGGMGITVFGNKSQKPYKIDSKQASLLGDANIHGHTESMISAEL

B1: H1 T32A Ab1 scFv (scFv)
scFv: QVQLQESGPGLVKPSQTLSLTCTVSGYAFAAYNIHWVRQAPGQGLEWMGSFDPYDGGSSYNQKFKDRLTISKDTSKNQVVLTMTNMDPVDTATYYCARGWYYFDYWGHGTLVTVSSGGGGSGGGGSGGGGSADIVMTQTPLSLPVTPGEPASISCRASKSISKYLAWYQQKPGQAPRLLIYSGSTLQSGIPPRFSGSGYGTDFTLTINNIESEDAAYYFCQQHDESPYTFGEGTKVEIKRDYKDDDDKGKPGSGKPGSGKPGSGKPGSYPYDVPDYAS
notes: VH - linker - VL with C-terminal FLAG and HA tags; also called scFv variant H1 T32A; Ab1.1
As to B1, the binding result (with human ROR1 on live cells [1]; in assay [2]) was “binds” throughout.

B2: H1 T32A/L2 T69R Ab1 scFv (scFv)
scFv: QVQLQESGPGLVKPSQTLSLTCTVSGYAFAAYNIHWVRQAPGQGLEWMGSFDPYDGGSSYNQKFKDRLTISKDTSKNQVVLTMTNMDPVDTATYYCARGWYYFDYWGHGTLVTVSSGGGGSGGGGSGGGGSADIVMTQTPLSLPVTPGEPASISCRASKSISKYLAWYQQKPGQAPRLLIYSGSRLQSGIPPRFSGSGYGTDFTLTINNIESEDAAYYFCQQHDESPYTFGEGTKVEIKRDYKDDDDKGKPGSGKPGSGKPGSGKPGSYPYDVPDYAS
notes: VH - linker - VL with C-terminal FLAG and HA tags; also called scFv variant H1 T32A+L2 T69R; Ab1.2
For the molecule B2, the binding result (in the assay with human ROR1 on live cells [1]; in assay [2]) was “binds” throughout.

B3: Ab1 scFv (scFv)
scFv: QVQLQESGPGLVKPSQTLSLTCTVSGYAFTAYNIHWVRQAPGQGLEWMGSFDPYDGGSSYNQKFKDRLTISKDTSKNQVVLTMTNMDPVDTATYYCARGWYYFDYWGHGTLVTVSSGGGGSGGGGSGGGGSADIVMTQTPLSLPVTPGEPASISCRASKSISKYLAWYQQKPGQAPRLLIYSGSTLQSGIPPRFSGSGYGTDFTLTINNIESEDAAYYFCQQHDESPYTFGEGTKVEIKRDYKDDDDKGKPGSGKPGSGKPGSGKPGSYPYDVPDYAS
notes: the pelB leader is not part of the entry; also called parental Ab1 scFv; Ab1 parental construct
As for B3, the binding result (with human ROR1 on live cells [1]; in [2]) was “binds” each time.

B4: Ab1 Fab (Fab, V domains shown)
VH: QVQLQESGPGLVKPSQTLSLTCTVSGYAFTAYNIHWVRQAPGQGLEWMGSFDPYDGGSSYNQKFKDRLTISKDTSKNQVVLTMTNMDPVDTATYYCARGWYYFDYWGHGTLVTVSS
VL: DIVMTQTPLSLPVTPGEPASISCRASKSISKYLAWYQQKPGQAPRLLIYSGSTLQSGIPPRFSGSGYGTDFTLTINNIESEDAAYYFCQQHDESPYTFGEGTKVEIK
notes: Soluble Fab from an M13 phage vector in E. coli: VL + kappa constant region, VH + human CH1 + His and HA tags; also called WT; parental Fab
As a reminder, the Kd is a measure of binding affinity in units of concentration. One may read the EC50 (read off the curve) as the concentration giving half of the maximal effect. As to B4, the Kd is 7 nM in assay [3]; 3 nM in [4]; 3.2 nM and 6 nM in [6]; 3.2 nM in assay [7]. Also, in the assay with human ROR1 on live cells [5], the “EC50 (read off the curve)” value was ~10 nM.

B5: Ab1 Fab variant H1 T32A (Fab, V domains shown)
VH: QVQLQESGPGLVKPSQTLSLTCTVSGYAFAAYNIHWVRQAPGQGLEWMGSFDPYDGGSSYNQKFKDRLTISKDTSKNQVVLTMTNMDPVDTATYYCARGWYYFDYWGHGTLVTVSS
VL: DIVMTQTPLSLPVTPGEPASISCRASKSISKYLAWYQQKPGQAPRLLIYSGSTLQSGIPPRFSGSGYGTDFTLTINNIESEDAAYYFCQQHDESPYTFGEGTKVEIK
notes: Fab
B5: the equilibrium dissociation constant (Kd) in assay [8] was 3.6 nM and 1.6 nM and 2.7 nM; in assay [10] it was 3 nM; in assay [11], 3 nM and 2.7 nM; in [6], 1.5 nM. The “EC50 (read off the curve)” value in assay [9] is ~3 nM; in the assay with human ROR1 on live cells [5] it was ~2 nM; in the assay with human ROR1 on live cells [12], ~0.05 µg/mL. Also, in assay [4], the “fold increase of binding against Ab1” value was ~4 fold.

These data come from patent US20230021388A1 (VELOSBIO, published 2023).
